For this data set, the target named is T1, VWF-73 FRETS substrate, P04275.
T1 chain: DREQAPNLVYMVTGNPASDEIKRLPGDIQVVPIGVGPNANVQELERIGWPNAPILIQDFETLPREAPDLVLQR

B1: mrADAMTS13 (truncated modified human recombinant ADAMTS13) (protein)
chain: AAGGILHLELLVAVGPDVFQAHQEDTERYVLTNLNIGAELLRDPSLGAQFRVHLVKMVILTEPEGAPNITANLTSSLLSVCGWSQTINPEDDTDPGHADLVLYITRFDLELPDGNRQVRGVTQLGGACSPTWSCLITEDTGFDLGVTIAHEIGHSFGLEHDGAPGSGCGPSGHVMASDGAAPRAGLAWSPCSRRQLLSLLSAGRARCVWDPPRPQPGSAGHPPDAQPGLYYSANEQCRVAFGPKAVACTFAREHLDMCQALSCHTDPLDQSSCSRLLVPLLDGTECGVEKWCSKGRCRSLVELTPIAAVHGRWSSWGPRSPCSRSCGGGVVTRRRQCNNPRPAFGGRACVGADLQAEMCNTQACEKTQLEFMSQQCARTDGQPLRSSPGGASFYHWGAAVPHSQGDALCRHMCRAIGESFIMKRGDSFLDGTRCMPSGPREDGTLSLCVSGSCRTFGCDGRMDSQQVWDRCQVCGGDNSTCSPRKGSFTAGRAREYVTFLTVTPNLTSVYIANHRPLFTHLAVRIGGRYVVAGKMSISPNTTYPSLLEDGRVEYRVALTEDRLPRLEEIRIWGPLQEDADIQVYRRYGEEYGNLTRPDITFTYFQPKPRQAKGELGTELGSEGKPIPNPLLGLDSTRTGHHHHHH
Regarding B1, the “ADAMTS13 activity (VWF-73 FRETS assay)” value was “demonstrated enhanced activity of mrADAMTS13 compared to truncated wild type ADAMTS13” and the “ADAMTS13 specific activity of mrADAMTS13 released from PLGA microparticles (FRETS VWF-73 fluorescent emission)” value is reported as “This data demonstrates active ADAMTS13 enzyme is present in all samples including at 120 hours”.

B2: Truncated wild-type ADAMTS13 (protein)
chain: AAGGILHLELLVAVGPDVFQAHQEDTERYVLTNLNIGAELLRDPSLGAQFRVHLVKMVILTEPEGAPNITANLTSSLLSVCGWSQTINPEDDTDPGHADLVLYITRFDLELPDGNRQVRGVTQLGGACSPTWSCLITEDTGFDLGVTIAHEIGHSFGLEHDGAPGSGCGPSGHVMASDGAAPRAGLAWSPCSRRQLLSLLSAGRARCVWDPPRPQPGSAGHPPDAQPGLYYSANEQCRVAFGPKAVACTFAREHLDMCQALSCHTDPLDQSSCSRLLVPLLDGTECGVEKWCSKGRCRSLVELTPIAAVHGRWSSWGPRSPCSRSCGGGVVTRRRQCNNPRPAFGGRACVGADLQAEMCNTQACEKTQLEFMSQQCARTDGQPLRSSPGGASFYHWGAAVPHSQGDALCRHMCRAIGESFIMKRGDSFLDGTRCMPSGPREDGTLSLCVSGSCRTFGCDGRMDSQQVWDRCQVCGGDNSTCSPRKGSFTAGRAREYVTFLTVTPNLTSVYIANHRPLFTHLAVRIGGRYVVAGKMSISPNTTYPSLLEDGRVEYRVALTEDRLPRLEEIRIWGPLQEDADIQVYRRYGEEYGNLTRPDITFTYFQPKPRQA
Take B2: the “ADAMTS13 activity (VWF-73 FRETS assay)” value is given as “demonstrated enhanced activity of mrADAMTS13 compared to truncated wild type ADAMTS13”.

The values are drawn from patent US20240067947.
